Test results: PMC12579237, “Development of antibody drug conjugates targeting epithelial membrane protein 2-highly expressed lung cancer” (Cell Death & Disease, 2025)

T1: Peptide 4. KFYPVTREGS (129-138aa) (Homo sapiens)
T1 construct: human EMP2 residues 129-138; source: synthetic peptide (GenScript)
T1 chain: KFYPVTREGS

T2: Purified EMP2 protein (human, UniProt P54851 1-167)
T2 chain: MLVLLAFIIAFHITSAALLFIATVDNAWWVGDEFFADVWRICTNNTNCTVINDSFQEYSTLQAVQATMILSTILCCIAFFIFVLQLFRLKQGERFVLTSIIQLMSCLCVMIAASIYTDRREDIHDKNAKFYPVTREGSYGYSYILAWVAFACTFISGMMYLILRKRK

B1: FK002-exatecan (antibody, V domains shown)
VH: DVQLQESGPGLVKPSQSLSLTCSVTGYSITSGYYWNWIRQFPGNKLEWMGYIRYDGRNNYNPSLKNRISITRDTSKNQFFLKLNSVTTEDTATYYCARDFDYWGQGTTLTVSS
VL: DIVLTQSPASLAVSLGQRATISCRASESVDTYGNSFMHWYQQKPGQPPKLLIYRASNLESGIPARFSGSGSRTDFTLTINPVEADDVATYYCHQSNEDPDTFGGGTKLEIKR
modifications: exatecan conjugated by the T1000 (Mc-VA-PABC(PSAR1o)) linker to the fully reduced antibody; DAR approximately 8 per antibody; residues not stated | exatecan conjugated by the T1000 (Mc-VA-PABC(PSAR1o)) linker to the fully reduced antibody; DAR approximately 8 per antibody; residues not stated
B2: FK002 antibody (mouse mAb) (antibody, V domains shown)
VH: B1 VH
VL: DIVLTQSPASLAVSLGQRATISCRASESVDTYGNSFMHWYQQKPGQPPKLLIYRASNLESGIPARFSGSGSRTDFTLTINPVEADDVATYYCHQSNEDPDTFGGGTKLEIK
notes: V region of the printed chimeric heavy chain; mouse IgG heavy constant region; V region of the printed chimeric light chain; mouse light constant region; Flow cytometry, immunofluorescence, immunoblot and dot blot used the mouse mAb (anti-mouse secondary antibodies); also called FK002Ab; FK002 mAb; source: hybridoma, mouse ascites (from Abmart)

Experiments:
hEMP2-GFP [1] = target: T3, hEMP2-GFP (Homo sapiens, UniProt P54851)
T3 construct: epithelial membrane protein 2 (EMP2), human, fused to GFP; also called human EMP2-GFP; pCDH-EMP2-GFP; source: HEK293T, transfected, in lysate; A549, transfected, in cells; stably overexpressed (lentivirus) in A549, NCI-H520 and LLC cells

[2] = target: T1, Peptide 4. KFYPVTREGS (129-138aa); assay: far-Western, overlay or dot blot; dot blot: 2.5 µL of each sample spotted on nitrocellulose (legend: 1 μg/spot), probed with FK002 antibody and HRP-conjugated mouse secondary antibody; settings: both partners purified
Purified EMP2 protein [3] = target: T2, Purified EMP2 protein; assay: SPR
Purified EMP2 protein [4] = target: T2, Purified EMP2 protein; assay: SPR; Biacore 8K; EMP2 protein (approximately 12,000 RU) amine coupled; FK002Ab injected at 8 concentrations (0.02-1 μM), 20 μL/min, 100 s association, 180 s dissociation; PBS pH 7.2-7.4 with 1% dimethyl sulfoxide
[5] = target: T4, epithelial membrane protein 2 (EMP2), endogenous in NCI-H226 cells (Homo sapiens, UniProt P54851); assay: affinity purification with mass spectrometry; FK002 antibody incubated with NCI-H226 whole-cell lysate; immunoprecipitate silver stained, qualitative mass spectrometry; settings: one partner purified
T4 construct: epithelial membrane protein 2 (EMP2), human, endogenous in NCI-H226 lung squamous carcinoma cells; On live cells in the flow cytometry; in whole-cell lysate in the immunoprecipitation; also called human EMP2; source: endogenous, NCI-H226 whole-cell lysate; endogenous, on NCI-H226 cells

hEMP2-GFP [6] = target: T3, hEMP2-GFP; assay: immunostaining of cells or tissue; immunofluorescence of A549 cells transfected with hEMP2-GFP, stained with FK002; colocalization quantified; settings: one partner purified

| Binder | EMP2 left on the cell surface, flow cytometry of EMP2-overexpressing NCI-H520 and NCI-A549 cells with or without FK002-exatecan (100 nM) for 48 h (hEMP2-GFP [1]) | binding result [2] | koff (Purified EMP2 protein [3]) | Kd (Purified EMP2 protein [4]) | binding result [5] | binding result (hEMP2-GFP [6]) |
| --- | --- | --- | --- | --- | --- | --- |
| B1 | < 35% | – | – | – | – | – |
| B2 | – | binds | 0.00328 s⁻¹ | 40.3 nM | binds | binds |
